According to US20190248902A1 (published 2019):
Substitutions are numbered along the chain they refer to. Each block holds one binder with its values, some of them ahead of it.

How the values were obtained:
[1] = molecular target: T1, recombinant, soluble human ASGR-1 (human, UniProt P07306 62-291); assay: Octet BLI dissociation, pH 5.6 minus calcium
T1 construct: biotinylated in the binning assay; also called soluble huASGR-1; Soluble ASGR-1 (Amgen)
T1 sequence: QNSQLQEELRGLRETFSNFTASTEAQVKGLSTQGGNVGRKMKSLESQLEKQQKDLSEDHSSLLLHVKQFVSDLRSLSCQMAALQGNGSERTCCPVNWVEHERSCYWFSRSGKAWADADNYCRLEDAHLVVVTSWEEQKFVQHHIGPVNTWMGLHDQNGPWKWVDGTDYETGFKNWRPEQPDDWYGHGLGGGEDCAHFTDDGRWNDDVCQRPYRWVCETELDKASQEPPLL
Method in brief: (§1)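 Antibodies were captured on anti-human Fc biosensors, and soluble ASGR-1 (6 ug/ml) was associated for 2 min in Tris buffer containing 1 mM CaCl2 at pH 7.4, followed by 10 min dissociation under each test condition. The signal at the end of association was set as 100%. Percent ASGR-1 still bound after 1 min of dissociation was compared with the pH 7.4 plus calcium control, and >10% extra dissociation was scored as sensitive.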

[2] = molecular target: T1, recombinant, soluble human ASGR-1; assay: Octet BLI dissociation, pH 5.6 plus calcium
Method in brief: as §1

[3] = molecular target: T1, recombinant, soluble human ASGR-1; assay: Octet BLI dissociation, pH 7.4 minus calcium
Method in brief: as §1

B1: 172B12 (antibody, V domains shown)
VH: QVQLVQSGAEVKKPGASVTVSCKASGYTFRSYYMYWVRQAPGQGLEWVGTINPSGGSTDYAQKFQGRVTMTRDTSTSTLYMELNSLRSEDTAVYYCASGWELNYWGQGTLVTVSS
VL: SSELTQDPAVSVALGQTVRITCQGDSLRNYYASWYQQKPGQAPILVIYTKNSRPSGIPDRFSGSTSGNTASLTITGAQAEDEADYYCNSRDSSGNHVVFGGGTKLTVL
notes: hybridoma mAb
% Change Compared to pH 7.4 + Calcium [1]: -13%
% Change Compared to pH 7.4 + Calcium [2]: -27%
% Change Compared to pH 7.4 + Calcium [3]: -14%

B2: 172C3 (antibody, V domains shown)
VH: B1 VH with T19K, D59N
VL: B1 VL with A32V, A77T
notes: hybridoma mAb
% Change Compared to pH 7.4 + Calcium [1]: 0%
% Change Compared to pH 7.4 + Calcium [2]: -26%
% Change Compared to pH 7.4 + Calcium [3]: -9%

B4: 226F9 (antibody, V domains shown)
VH: QVQLVQSGAEVKKPGASVKVSCKASGYTFTGYYIHWVRQAPGQGLEWMGWINPYSGDTKYAQKFQGRVTMTRATSISTAYMELSRLRFDDTAVFYCARDWGGYSSYYYGMDVWGQGTTVTVSS
VL: DIVMTQTPLSLSVTPGQPASISCKSSQSLLHSDGKTFLYWYLQKPGQPPQLLIYEISNRFSGVPDRFSGSGSGTDFTLKISRVEAEDVGIYYCMQSTQLPRTFGQGTKVEIK
notes: hybridoma mAb
% Change Compared to pH 7.4 + Calcium [1]: 77%
% Change Compared to pH 7.4 + Calcium [2]: 51%
% Change Compared to pH 7.4 + Calcium [3]: 100%

B8: 198B9 (antibody, V domains shown)
VH: QVQLVESGGGVVQPGRSLRLSCAASGFTFSNYGMHWVRQAPGKGLEWVAIIWFDGSNKYYVDSVKGRFTISRDNSKNTLFLQMSSLRAEDTAVYYCAREWLQFRYYYGMDVWGQGTTVTVSS
VL: DIQMTQSPSSLSASVGDRVTITCRASQGIRKDLGWYQQKPGKAPKRLIYAASSLQSGVPSRFSGSGSGTEFTLTISSLQPEDFATYVCLQHYRYPFTFGPGTKVDFK
notes: hybridoma mAb
% Change Compared to pH 7.4 + Calcium [1]: 11%
% Change Compared to pH 7.4 + Calcium [2]: 2%
% Change Compared to pH 7.4 + Calcium [3]: 3%

B9: 193E7 (antibody, V domains shown)
VH: QVQLQQWGAGLLKPSETLSLTCAVYGGSFSGYFWTWIRQPPGKGLEWIGEINHSGSTNYNPSLKSRVTISVDTSKNQFSLKLSSVTAADTAVYYCARDYGADYWGQGTLVAVSA
VL: B8 VL with K31N, A50S, S56R, V87Y, Y92K, F96L, P100G, D105E, F106I
notes: hybridoma mAb
% Change Compared to pH 7.4 + Calcium [1]: -4%
% Change Compared to pH 7.4 + Calcium [2]: -9%
% Change Compared to pH 7.4 + Calcium [3]: -9%

B10: 199A7 (antibody, V domains shown)
VH: B8 VH with V61A
VL: B8 VL
notes: hybridoma mAb
% Change Compared to pH 7.4 + Calcium [1]: 10%
% Change Compared to pH 7.4 + Calcium [2]: 1%
% Change Compared to pH 7.4 + Calcium [3]: 1%

B12: 75G3 (antibody, V domains shown)
VH: QVQLQQWGAGLLKPSETLSLTCAVYGGSLSGSYWSWIRQPPGKGLEWIGEINLSGSTNYNPSLKSRVTISVDTSKSQFSLTLRSVTAADTAVYYCARDYGGLDYWGQGTLVTVSS
VL: EIVLTQSPGTLSLSPGERATLSCRARQNVDSSYLAWYQQKPGQAPRLLIYGASSRATGIPDRFSGSGSGTDFTLTISRLEPEDFAVFYCQQYERSPWTFGQGTKVEIK
notes: hybridoma mAb
% Change Compared to pH 7.4 + Calcium [1]: 2%
% Change Compared to pH 7.4 + Calcium [2]: -1%
% Change Compared to pH 7.4 + Calcium [3]: -1%

B13: 74H7 (antibody, V domains shown)
VH: B12 VH with T17P, L29F, S32P, L53H, S76N, T81K, R83T, Y104V, L110T
VL: B12 VL with I2L, R26S, V29I, D30Y, F87Y, Y88C, R94S
notes: hybridoma mAb
% Change Compared to pH 7.4 + Calcium [1]: 1%
% Change Compared to pH 7.4 + Calcium [2]: -2%
% Change Compared to pH 7.4 + Calcium [3]: 1%

B19: 74C8 (antibody, V domains shown)
VH: QVQLVESGGGVVQPGRSLRLSCAASGFTFSSYGMHWVRQAPGKGLEWVAVIWYDGSNKNYADSVKGRFTISRDNSKNTLYLQMNSLRAEDTAVYYCARDGSYGYDGLDYWGQGTLVTVSS
VL: DIQMTQSPSSLSASVGDRVTITCRASQGIGKYLAWFQQKPGKAPKSLIYTTSNLQSGAPSKFSGSGSGTDFTLTISSLQYEDFATYYCQQYSNYPLTFGGGTKVEIN
notes: hybridoma mAb
% Change Compared to pH 7.4 + Calcium [1]: -3%
% Change Compared to pH 7.4 + Calcium [2]: -7%
% Change Compared to pH 7.4 + Calcium [3]: 1%

B21: 149A1 (antibody, V domains shown)
VH: EVQLVESGGGLVQPGGSLRLSCAASGFTFSSYNMNWVRQAPGKGLEWVSYISRSSNTKHYADSVKGRFTISRDNAKNSLYLQMNSLRDEDTAVYYCARDRSGSYGYFYYYGLDVWGQGTTVTVSS
VL: not shown
notes: hybridoma mAb
% Change Compared to pH 7.4 + Calcium [1]: 9%
% Change Compared to pH 7.4 + Calcium [2]: -7%
% Change Compared to pH 7.4 + Calcium [3]: 2%

B23: 146A8 (antibody, V domains shown)
VH: B21 VH with Q3K, G16E, A23V, S31N, H59Y, K65R
VL: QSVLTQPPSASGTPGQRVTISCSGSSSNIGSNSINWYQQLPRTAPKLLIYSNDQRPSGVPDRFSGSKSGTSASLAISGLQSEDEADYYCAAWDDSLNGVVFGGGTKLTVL
notes: hybridoma mAb
% Change Compared to pH 7.4 + Calcium [1]: 25%
% Change Compared to pH 7.4 + Calcium [2]: -9%
% Change Compared to pH 7.4 + Calcium [3]: 2%

The remaining lines, values ahead:

% Change Compared to pH 7.4 + Calcium [1]: 23%
% Change Compared to pH 7.4 + Calcium [2]: 0%
% Change Compared to pH 7.4 + Calcium [3]: 13%
B3: 65C12 (antibody, V domains shown)
VH: EVQLVESGGGLVKPGGSLRLSCAASGFTFRSFSLNWVRQAPGKGLEWVSSISSSSSYIYYADSVKGRFTISRDNAKNSLYLQMNSLRAEDTAVYYCARDAYSHYWGQGTLVTVSS
VL: EIVMTQSPATLSVFPGEGATLSCRASQSVSINLAWYQQKPGQAPRLLIYGASTRATGIPARFNASGSGTEFTLSISSLQSENFAVYYCQQYNTWPLTFGGGTKVEIK
notes: hybridoma mAb

% Change Compared to pH 7.4 + Calcium [1]: 65%
% Change Compared to pH 7.4 + Calcium [2]: 41%
% Change Compared to pH 7.4 + Calcium [3]: 77%
B5: 224G1 (antibody, V domains shown)
VH: B4 VH with K59N, A73D
VL: B4 VL with S26G, Y39S, Y91F
notes: hybridoma mAb

% Change Compared to pH 7.4 + Calcium [1]: 73%
% Change Compared to pH 7.4 + Calcium [2]: 54%
% Change Compared to pH 7.4 + Calcium [3]: 100%
B6: 227C1 (antibody, V domains shown)
VH: B4 VH with I34T, D57G, K59N, A73D, F94Y
VL: B4 VL
notes: hybridoma mAb

% Change Compared to pH 7.4 + Calcium [1]: 100%
% Change Compared to pH 7.4 + Calcium [2]: 50%
% Change Compared to pH 7.4 + Calcium [3]: 80%
B7: 227F2 (antibody, V domains shown)
VH: B4 VH with Q3H, A73D
VL: B4 VL
notes: hybridoma mAb

% Change Compared to pH 7.4 + Calcium [1]: -4%
% Change Compared to pH 7.4 + Calcium [2]: -4%
% Change Compared to pH 7.4 + Calcium [3]: -5%
B11: 199E3 (antibody, V domains shown)
VH: B9 VH
VL: B8 VL with K31N, Y49S, A50S, S56R, V87Y, Y92K, F96L, P100G, D105E, F106I
notes: hybridoma mAb

% Change Compared to pH 7.4 + Calcium [1]: 2%
% Change Compared to pH 7.4 + Calcium [2]: -2%
% Change Compared to pH 7.4 + Calcium [3]: 2%
B14: 85F7 (antibody, V domains shown)
VH: B12 VH with T17P, L29F, S32P, L53H, S76N, T81K, R83T, Y104V, L110T
VL: B12 VL with I2P, R26S, V29I, D30Y, S32N, F87Y, Y88C, R94S
notes: hybridoma mAb

% Change Compared to pH 7.4 + Calcium [1]: -5%
% Change Compared to pH 7.4 + Calcium [2]: -9%
% Change Compared to pH 7.4 + Calcium [3]: 8%
B15: 74B2 (antibody, V domains shown)
VH: QVQLQQWGAGLLKPSEPLSLTCAVYGGSFSGPYWSWIRQPPGKGLEWIGEINHSGSTNYNPSLTSRVTISVDTSKNQFSLKLTSVTAADSAVYYCARDYGGLDVWGQGTTVTVSS
VL: B12 VL with I2L, R26S, V29I, D30Y, F87Y, Y88C, R94S
notes: hybridoma mAb

% Change Compared to pH 7.4 + Calcium [1]: 0%
% Change Compared to pH 7.4 + Calcium [2]: -4%
% Change Compared to pH 7.4 + Calcium [3]: 1%
B16: 218G4 (antibody, V domains shown)
VH: QVQLVESGGGVVQPGRSLRLSCAASGFTFSSYGLHWVRQAPGKGLEWVAVIWYDGSNKYYADSVKGRFTISRDNSKNTLYLQMNSLRVEDTAVYYCANWYYYYYGMDVWGQGTTVTVSS
VL: QSVLTQPPSVSAAPGQKVTISCSGSSSNIGNNYVSWYQQLPGTAPKLLLYDSNKRPSGIPARFSGSKSGTSATLGITGLQTGDEADYYCGTWDSSLNTVVFGGGTKLTVL
notes: hybridoma mAb

% Change Compared to pH 7.4 + Calcium [1]: -3%
% Change Compared to pH 7.4 + Calcium [2]: -7%
% Change Compared to pH 7.4 + Calcium [3]: -1%
B17: 213B3 (antibody, V domains shown)
VH: B19 VH with G100R, S101T, Y102V, L107F, Y109I, L115M
VL: DIQMTQSPSSLSASVGDRVTITCRASQGIGKYLAWFQQKPGKAPKSLISAASSVLSGVPSKFSGSGSGTDFTLTISSLQPEDFATYYCQKYDTYPFTFGPGTKVDIK
notes: hybridoma mAb

% Change Compared to pH 7.4 + Calcium [1]: -4%
% Change Compared to pH 7.4 + Calcium [2]: -9%
% Change Compared to pH 7.4 + Calcium [3]: 1%
B18: 74G6 (antibody, V domains shown)
VH: B19 VH
VL: B19 VL with N53S
notes: hybridoma mAb

% Change Compared to pH 7.4 + Calcium [1]: 1%
% Change Compared to pH 7.4 + Calcium [2]: -3%
% Change Compared to pH 7.4 + Calcium [3]: 2%
B20: 219H1 (antibody, V domains shown)
VH: B19 VH with S31R, N59H, A88G, G100R, S101G, Y102V, D105N, L107M, Y109V, L115T
VL: DIQMTQSPSSQSASVGDRVTITCRASQGISNYLDWFQQKPGKAPKSLIYSASNLQSGVPSKFSGSRSGTDFTLTISSLQPEDFATYYCQHYSNYPLTFGGGTKVEIK
notes: hybridoma mAb

% Change Compared to pH 7.4 + Calcium [1]: 13%
% Change Compared to pH 7.4 + Calcium [2]: -5%
% Change Compared to pH 7.4 + Calcium [3]: 2%
B22: 146B6 (antibody, V domains shown)
VH: B21 VH with N84D
VL: not shown
notes: hybridoma mAb
